Experimental data as given in patent publication US20200317817A1 (XOMA US, published 2020).
Changes are numbered by the printed parent chain.

T1: rat PTH1R on UMR106 cells (rat, UniProt P25961 27-591)
T1 construct: whole, on cells; also called UMR106 (Endogenous Rat PTH1R); native rat PTH1R
T1 sequence (looked up): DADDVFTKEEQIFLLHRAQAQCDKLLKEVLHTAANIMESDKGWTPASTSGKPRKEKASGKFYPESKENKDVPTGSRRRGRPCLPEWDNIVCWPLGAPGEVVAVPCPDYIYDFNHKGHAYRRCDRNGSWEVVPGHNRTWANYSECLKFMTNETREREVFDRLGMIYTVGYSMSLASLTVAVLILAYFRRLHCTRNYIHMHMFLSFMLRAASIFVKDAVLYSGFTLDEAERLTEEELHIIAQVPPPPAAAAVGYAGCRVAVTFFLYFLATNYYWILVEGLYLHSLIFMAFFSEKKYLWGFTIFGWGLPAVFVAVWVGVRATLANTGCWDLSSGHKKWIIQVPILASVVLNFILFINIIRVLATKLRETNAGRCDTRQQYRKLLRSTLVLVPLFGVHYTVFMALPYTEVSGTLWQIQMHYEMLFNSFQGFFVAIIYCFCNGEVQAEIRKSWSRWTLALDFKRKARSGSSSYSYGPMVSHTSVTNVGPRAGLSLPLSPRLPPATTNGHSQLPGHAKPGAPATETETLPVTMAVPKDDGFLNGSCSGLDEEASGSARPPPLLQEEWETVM

T2: recombinant N-terminal extracellular domain of the human PTH1R receptor (human, UniProt Q03431 27-188, limits assumed)
T2 construct: domain: N-terminal extracellular domain; Bought reagent; also called N-ECD PTH1R; PTH1R N-terminal ECD
T2 sequence (looked up): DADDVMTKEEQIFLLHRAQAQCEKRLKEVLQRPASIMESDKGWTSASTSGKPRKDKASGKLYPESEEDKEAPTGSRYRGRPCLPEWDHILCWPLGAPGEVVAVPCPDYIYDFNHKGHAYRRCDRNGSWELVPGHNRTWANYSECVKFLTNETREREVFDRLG

T3: human PTH1R overexpressed on CHO cells (human, UniProt Q03431 27-593)
T3 sequence (looked up): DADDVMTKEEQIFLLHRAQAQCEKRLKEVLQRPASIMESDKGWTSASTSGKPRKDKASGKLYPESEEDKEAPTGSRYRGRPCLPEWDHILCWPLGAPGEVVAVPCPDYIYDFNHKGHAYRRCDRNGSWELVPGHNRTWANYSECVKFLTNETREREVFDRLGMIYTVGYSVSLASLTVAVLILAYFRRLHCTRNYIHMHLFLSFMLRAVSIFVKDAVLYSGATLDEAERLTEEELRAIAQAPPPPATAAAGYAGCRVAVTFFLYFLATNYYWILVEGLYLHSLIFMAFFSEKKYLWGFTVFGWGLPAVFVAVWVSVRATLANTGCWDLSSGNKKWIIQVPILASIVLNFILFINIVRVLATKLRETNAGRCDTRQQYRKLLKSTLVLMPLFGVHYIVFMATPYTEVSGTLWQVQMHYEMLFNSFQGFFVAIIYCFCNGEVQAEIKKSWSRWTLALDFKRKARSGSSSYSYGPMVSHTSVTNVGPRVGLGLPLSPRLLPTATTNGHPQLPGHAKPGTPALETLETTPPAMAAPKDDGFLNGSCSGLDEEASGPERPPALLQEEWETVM

T4: mouse PTH1R overexpressed on CHO cells (mouse, UniProt P41593 27-591)
T4 sequence (looked up): T1 sequence (looked up) with S58P, P497L, T518I, T520N, L523I, A528T

T5: human PTH1R on Saos-2 cells (endogenous) (human, UniProt Q03431 27-593)
T5 sequence (looked up): T3 sequence (looked up)

B1: XPA.85.332 (antibody, V domains shown)
VH: QMQLVQSGAEVKKPGSSVKVSCKASGGTFSSYAISWVRQAPGQGLEWMGGIIPIFGTANYAQKFQGRVTITADESTSTAYMELSSLRSEDTAVYYCARGYVVARLWGQGTLVTVSS
VL: ETTLTQSPAFMSASVGDRVTITCQASQDINNFLNWYQQKPGKAPKFLIYDASNLEKGVPSKFSGRGSGTEFTLTISSLQPEDIATYYCQQYRDFPLTFGQGTRLEIK
notes: Light-chain-shuffled variant of XPA.85.012
B2: XPA.85.333 (antibody, V domains shown)
VH: B1 VH
VL: DVVMTQTPLSLSVTPGQPASISCKSSQSLLHIDGKAYLYWYLQKPGQSPHLLIREVSTRFSGVSDRFTGSGSGTDFTLEISRVEAEDVGVYYCMQGLHLPPTFGQGTKVEIK
notes: as for B1
B3: XPA.85.340 (antibody, V domains shown)
VH: EVQLVETGGGVVRPGGSLRLSCAASGFTFSSSAMSWVRQTPGKELQWVSAITPGGEGTYYADVVKGRFTISRDNSKDTLYLQMDSLRAEDTAVYYCARDLYGSYGDAFDIWGQGTLVTVSS
VL: SYVLTQPPSVSVAPGQTASITCSGDNLGEKFVSWYQQKAGQSPVLVIFEDNKRPSGIPERFAGSNSGNRATLTIRGTQAEDEADYYCQAWDSSWVFGGGTQLTVL
notes: Light-chain-shuffled variant of XPA.85.017
B4: XPA.85.335 (antibody, V domains shown)
VH: B3 VH
VL: QSVLTQPPSVSAAPGQRVTISCSGNTSNIGNNFVSWYQQLPGTAPKLLIYDDNKRPSGIPDRFSGSKSGTSATLGISGLQTGDEADYYCGTWDNSLNPPWVFGGGTQLTVL
notes: as for B3
B5: XPA.85.336 (antibody, V domains shown)
VH: B3 VH
VL: QSVLTQPPSVSAAPGQKVTISCSGTGSNIGSNYVAWYQQLPGTAPKLLIYDDNKRPSGTPDRFSGSKSGTSATLVIAGLQTGDEADYYCGTWDNTLNVGGVFGGGTQLTVL
notes: as for B3
B6: XPA.85.337 (antibody, V domains shown)
VH: B3 VH
VL: SYVLTQPPSVSVAPGQTATITCSGDDFGDKYVSWYQQKPGQSPLLVIFQDNERPSGIPERFSGSNSGNTATLTISGTQAMDEADYYCQAWDSNWVFGGGTKVTVL
notes: as for B3
B7: XPA.85.338 (antibody, V domains shown)
VH: B3 VH
VL: SYELTQPPSVSVAPGQTATITCSGDKLGDKYASWYQQKPGQSPVLVMFENRDRPSGIPDRFSGSNSGNTATLTISGTQAMDEADYYCQAWDSSTAWVFGGGTQLTVL
notes: as for B3

Key:
[1] = molecular target: T1, rat PTH1R on UMR106 cells; experiment: flow cytometry, 1 hr at 4 C
[2] = molecular target: T2, recombinant N-terminal extracellular …; experiment: SPR, IgG captured, ECD injected
Experimental: An anti-human IgG-Fc CMS sensor chip (GE Healthcare) was prepared using standard amine coupling as described by the manufacturer's protocol for the capture Ab on a BIACORE 4000 system (GE Healthcare). Briefly, the chip surface was activated with a 10 minute injection at 10 μL/minute of a freshly mixed 1:1 solution of 0.1 M N-Hydroxysuccinimide (NHS) and 0.4 M 1-Ethyl-3-(3-dimethylaminopropyl) carbodiimide hydrochloride (EDC). Following the activation injection, 15 ug/mL anti-human IgG-Fc antibody in acetate pH 4.5 was injected at 10 μL/minute for 10 minutes to achieve a high density capture surface. 7 minutes of 1M Ethanolamine hydrochloride-NaOH pH 8.5 was injected to block the surface. The NHS, EDC, and Ethanolamine used were from the BIACORE Amine Coupling Kit.
Kinetic Analysis was performed using HBS-EP+(Teknova) with 2.5 mg/mL BSA (Sigma Aldrich, St. Louis Mo.). Antibodies were diluted to 0.5 μg/mL and captured to achieve a surface density of 100 to 200 RU. […] Injections were performed at 30 μL/minute for 240 seconds with a 360 second dissociation time. Regeneration was then performed with one 60 second injection 3M MgCl.
The data were analyzed using BIACORE 4000 Evaluation Software and was double referenced by subtracting both the blank flow cell data and the averaged bracketing blank injections. The data was fit by simultaneously fitting the an off-rate (kd) and on-rate (kₐ), and calculating the KD as KD=kd/kₐ.

[3] = molecular target: T3, human PTH1R overexpressed on CHO cells; experiment: cell-based or functional assay
[4] = molecular target: T4, mouse PTH1R overexpressed on CHO cells; experiment: cell-based or functional assay
[5] = molecular target: T3, human PTH1R overexpressed on CHO cells; experiment: flow cytometry on CHO cells, 24 hr at 4 C
Experimental: (§1) To characterize antibody binding to PTH1R, cells were labeled with either CellTrace™ CFSE or CellTrace™ Violet. Unlabeled CHOK1 parent, CHO human PTH1R labeled with CellTrace™CFSE, and CHO mouse PTH1R labeled with CellTrace™Violet were pooled together and stained with increasing concentrations of antibody. Antibodies were incubated for 24 hr at 4° C. followed by two washes with FACS Buffer (0.5% BSA, 0.1% NaN3 in DPBS). Cells were then incubated with Allophycocyanin (APC) AffiniPure F(ab′)₂ Fragment Goat Anti-Human IgG (H+L) (Jackson ImmunoResearch, West Grove, Pa.) for 20 minutes at 4° C. Followed by two washes, cells were resuspended in FACS Buffer. Samples were acquired using BD Cytometer (BD Biosciences, San Jose, Calif.) and data were analyzed using FlowJo (FlowJo, LLC, Ashland, Oreg.) and Prism (GraphPad Software, La Jolla, Calif.).

[6] = molecular target: T4, mouse PTH1R overexpressed on CHO cells; experiment: flow cytometry on CHO cells, 24 hr at 4 C
Experimental: as §1

[7] = molecular target: T1, rat PTH1R on UMR106 cells; experiment: cell-based or functional assay
[8] = molecular target: T3, human PTH1R overexpressed on CHO cells; experiment: cell-based or functional assay; remark: listed apart in the source
[9] = molecular target: T5, human PTH1R on Saos-2 cells (endogenous); experiment: cell-based or functional assay
[10] = molecular target: T4, mouse PTH1R overexpressed on CHO cells; experiment: cell-based or functional assay; remark: listed apart in the source

Row | Binder | binding result [1] | Kd [2] [nM] | koff [2] [s⁻¹] | kon [2] [M⁻¹ s⁻¹] | IC50, inhibition of PTH(1-34)-induced cAMP accumulation [3] [nM] | IC50, inhibition of PTHrP(1-34)-induced cAMP accumulation [3] [nM] | IC50, inhibition of PTHrP(1-34)-induced cAMP accumulation [4] [nM] | EC50 [5] [nM] | EC50 [6] [nM] | EC50 of PTH(1-34), cAMP assay, with 267 nM IgG [7] [nM] | EC50 of PTH(1-34), cAMP assay, with 267 nM IgG [8] [nM] | EC50 of PTH(1-34), cAMP assay, with 267 nM IgG [9] [nM] | EC50 of PTHrP(1-34), cAMP assay, with 267 nM IgG [9] [nM] | EC50 of PTH(1-34), cAMP assay, with 267 nM IgG [10] [nM]
1 | B1 | binds | 0.71 | 0.0017 | 2.4e+06 | 12.1 | 5.03 | 2.3 | – | – | – | – | – | – | –
2 | B2 | binds | 0.3 | 0.00054 | 1.8e+06 | 11.4 | 5.61 | 2.04 | – | – | – | – | – | – | –
3 | B3 | – | 0.75 | 0.0011 | 1.4e+06 | – | – | – | 0.167 | 0.322 | 8.1 | 0.404 | 4.17 | 11.8 | 0.614
4 | B4 | – | 2.4 | 0.0019 | 800000 | – | – | – | 0.265 | 0.384 | – | 0.0429 | – | 6.41 | 4.54
5 | B5 | – | 17 | 0.019 | 1.1e+06 | – | – | – | 0.342 | 14.7 | – | 0.0181 | – | 23.6 | 0.144
6 | B6 | – | 0.75 | 0.00046 | 610000 | – | – | – | 1.26 | 3.27 | 2.88 | 0.107 | – | 27.1 | 0.219
7 | B7 | – | 0.43 | 0.00057 | 1.3e+06 | – | – | – | 0.181 | 0.68 | 7.86 | 0.244 | 32.8 | 33 | 1.8
